B1: PPARd: Peroxisome proliferator activated receptor δ (NR1C2), cDNA driver (protein, UniProt Q03181 1-441, looked up)
Peroxisome …: MEQPQEEAPEVREEEEKEEVAEAEGAPELNGGPQHALPSSSYTDLSRSSSPPSLLDQLQMGCDGASCGSLNMECRVCGDKASGFHYGVHACEGCKGFFRRTIRMKLEYEKCERSCKIQKKNRNKCQYCRFQKCLALGMSHNAIRFGRMPEAEKRKLVAGLTANEGSQYNPQVADLKAFSKHIYNAYLKNFNMTKKKARSILTGKASHTAPFVIHDIETLWQAEKGLVWKQLVNGLPPYKEISVHVFYRCQCTTVETVRELTEFAKSIPSFSSLFLNDQVTLLKYGVHEAIFAMLASIVNKDGLLVANGSGFVTREFLRSLRKPFSDIIEPKFEFAVKFNALELDDSDLALFIAAIILCGDRPGLMNVPRVEAIQDTILRALEFHLQANHPDAQYLFPKLLQKMADLRQLVTEHAQMMQRIKKTETETSLHPLLQEIYKDMY
B2: RORb: RAR-related Orphan Receptor β (NR1F2), cDNA driver (protein, UniProt Q92753 1-470, looked up)
Nuclear receptor ROR-beta: MCENQLKTKADATAQIEVIPCKICGDKSSGIHYGVITCEGCKGFFRRSQQNNASYSCPRQRNCLIDRTNRNRCQHCRLQKCLALGMSRDAVKFGRMSKKQRDSLYAEVQKHQQRLQEQRQQQSGEAEALARVYSSSISNGLSNLNNETSGTYANGHVIDLPKSEGYYNVDSGQPSPDQSGLDMTGIKQIKQEPIYDLTSVPNLFTYSSFNNGQLAPGITMTEIDRIAQNIIKSHLETCQYTMEELHQLAWQTHTYEEIKAYQSKSREALWQQCAIQITHAIQYVVEFAKRITGFMELCQNDQILLLKSGCLEVVLVRMCRAFNPLNNTVLFEGKYGGMQMFKALGSDDLVNEAFDFAKNLCSLQLTEEEIALFSSAVLISPDRAWLIEPRKVQKLQEKIYFALQHVIQKNHLDDETLAKLIAKIPTITAVCNLHGEKLQVFKQSHPEIVNTLFPPLYKELFNPDCATGCK
B3: FXR: Farnesoid X Receptor (NR1H4), cDNA driver (protein, UniProt Q96RI1 1-486, looked up)
Bile acid receptor: MVMQFQGLENPIQISPHCSCTPSGFFMEMMSMKPAKGVLTEQVAGPLGQNLEVEPYSQYSNVQFPQVQPQISSSSYYSNLGFYPQQPEEWYSPGIYELRRMPAETLYQGETEVAEMPVTKKPRMGASAGRIKGDELCVVCGDRASGYHYNALTCEGCKGFFRRSITKNAVYKCKNGGNCVMDMYMRRKCQECRLRKCKEMGMLAECMYTGLLTEIQCKSKRLRKNVKQHADQTVNEDSEGRDLRQVTSTTKSCREKTELTPDQQTLLHFIMDSYNKQRMPQEITNKILKEEFSAEENFLILTEMATNHVQVLVEFTKKLPGFQTLDHEDQIALLKGSAVEAMFLRSAEIFNKKLPSGHSDLLEERIRNSGISDEYITPMFSFYKSIGELKMTQEEYALLTAIVILSPDRQYIKDREAVEKLQEPLLDVLQKLCKIHQPENPQHFACLLGRLTELRTFNHHHAEMLMSWRVNDHKFTPLLCEIWDVQ
B4: RXRb: Retinoic X Receptor β (NR2B2), cDNA driver (protein, UniProt P28702 1-533, looked up)
Retinoic acid receptor …: MSWAARPPFLPQRHAAGQCGPVGVRKEMHCGVASRWRRRRPWLDPAAAAAAAVAGGEQQTPEPEPGEAGRDGMGDSGRDSRSPDSSSPNPLPQGVPPPSPPGPPLPPSTAPSLGGSGAPPPPPMPPPPLGSPFPVISSSMGSPGLPPPAPPGFSGPVSSPQINSTVSLPGGGSGPPEDVKPPVLGVRGLHCPPPPGGPGAGKRLCAICGDRSSGKHYGVYSCEGCKGFFKRTIRKDLTYSCRDNKDCTVDKRQRNRCQYCRYQKCLATGMKREAVQEERQRGKDKDGDGEGAGGAPEEMPVDRILEAELAVEQKSDQGVEGPGGTGGSGSSPNDPVTNICQAADKQLFTLVEWAKRIPHFSSLPLDDQVILLRAGWNELLIASFSHRSIDVRDGILLATGLHVHRNSAHSAGVGAIFDRVLTELVSKMRDMRMDKTELGCLRAIILFNPDAKGLSNPSEVEVLREKVYASLETYCKQKYPEQQGRFAKLLLRLPALRSIGLKCLEHLFFFKLIGDTPIDTFLMEMLEAPHQLA
B5: CAR: Constitutive Androstane Receptor (NR1I3), cDNA driver (protein, UniProt Q14994 1-352, looked up)
Nuclear receptor subfamily 1 …: MASREDELRNCVVCGDQATGYHFNALTCEGCKGFFRRTVSKSIGPTCPFAGSCEVSKTQRRHCPACRLQKCLDAGMRKDMILSAEALALRRAKQAQRRAQQTPVQLSKEQEELIRTLLGAHTRHMGTMFEQFVQFRPPAHLFIHHQPLPTLAPVLPLVTHFADINTFMVLQVIKFTKDLPVFRSLPIEDQISLLKGAAVEICHIVLNTTFCLQTQNFLCGPLRYTIEDGARVSPTVGFQVEFLELLFHFHGTLRKLQLQEPEYVLLAAMALFSPDRPGVTQRDEIDQLQEEMALTLQSYIKGQQRRPRDRFLYAKLLGLLAELRSINEAYGYQIQHIQGLSAMMPLLQEICS
B6: PXR: Pregnane X Receptor (NR1I2), cDNA driver (protein, UniProt O75469 1-434, looked up)
Nuclear receptor subfamily 1 …: MEVRPKESWNHADFVHCEDTESVPGKPSVNADEEVGGPQICRVCGDKATGYHFNVMTCEGCKGFFRRAMKRNARLRCPFRKGACEITRKTRRQCQACRLRKCLESGMKKEMIMSDEAVEERRALIKRKKSERTGTQPLGVQGLTEEQRMMIRELMDAQMKTFDTTFSHFKNFRLPGVLSSGCELPESLQAPSREEAAKWSQVRKDLCSLKVSLQLRGEDGSVWNYKPPADSGGKEIFSLLPHMADMSTYMFKGIISFAKVISYFRDLPIEDQISLLKGAAFELCQLRFNTVFNAETGTWECGRLSYCLEDTAGGFQQLLLEPMLKFHYMLKKLQLHEEEYVLMQAISLFSPDRPGVLQHRVVDQLQEQFAITLKSYIECNRPQPAHRFLFLKIMAMLTELRSINAQHTQRLLRIQDIHPFATPLMQELFGITGS
B7: RXRg: Retinoic X Receptor γ (NR2B3), cDNA driver (protein, UniProt P48443 1-463, looked up)
Retinoic acid receptor …: MYGNYSHFMKFPAGYGGSPGHTGSTSMSPSAALSTGKPMDSHPSYTDTPVSAPRTLSAVGTPLNALGSPYRVITSAMGPPSGALAAPPGINLVAPPSSQLNVVNSVSSSEDIKPLPGLPGIGNMNYPSTSPGSLVKHICAICGDRSSGKHYGVYSCEGCKGFFKRTIRKDLIYTCRDNKDCLIDKRQRNRCQYCRYQKCLVMGMKREAVQEERQRSRERAESEAECATSGHEDMPVERILEAELAVEPKTESYGDMNMENSTNDPVTNICHAADKQLFTLVEWAKRIPHFSDLTLEDQVILLRAGWNELLIASFSHRSVSVQDGILLATGLHVHRSSAHSAGVGSIFDRVLTELVSKMKDMQMDKSELGCLRAIVLFNPDAKGLSNPSEVETLREKVYATLEAYTKQKYPEQPGRFAKLLLRLPALRSIGLKCLEHLFFFKLIGDTPIDTFLMEMLETPLQIT

Tests used:
mUCP2 promoter = test: NHR-promoter luciferase screen, mUCP2 promoter; type: cell-based, mouse; conditions: for Luc. act., normalized to lacZ / Normalized Luc. act., normalized to control: mUCP2 promoter reporter, co-transfected HR, with or without its ligand; for Normalized Luc. act., normalized to control: relative to control; for luciferase activity normalized to lacZ activity and to a control, mUCP2: mUCP2 promoter-luciferase, CV-1 cells, NHR +/- ligand, control = 1.00
Description: (§1) The use, feasibility, and reproducibility of the functional NHR-promoter screen in a 48-well format have been tested validated. Briefly, there were co-expressed 50 ng of each NHR/NHR homodimer or NHR/RXR heterodimer with 100 ng promoter/luciferase construct and 50 ng of LacZ (as a control for transfection efficiency) in CV-1 cells using Fugene HD (Roche) as a transfection reagent (alternatively or additionally, a CMV-YFP construct can be used as a transfection control). Each of the nuclear hormone receptors that were used in these experiments was cloned into a pcDNA3.1 vector and comprised a C-terminally linked V5H6 tag. Twenty-four hours after transfection, appropriate ligands were added, where applicable, (see Table 5 for various ligands and concentrations and after 48 hrs, samples were assayed for luciferase and LacZ activity. To measure for luciferase activity 15 ul of sample was added to 30 ul of luciferase buffer (20 mM tricine, 1.07 mM MgCarbonate, 2.67 mM MgSulfate, 0.1 mM Naz-EDTA, 5 mM DTT, 5 mM ATP, 0.15 mg/ml CoA, 0.5 mM Luciferin), mixed briefly, and run in a Perkin Elmer Victor 5 luminometer. Thus, the functional NHR-promoter screen was used to observe the transcriptional activity of 29 promoters from various physiological pathways including inflammation, lipid and sugar metabolism, cholesterol transport, xenobiotic metabolism, and circadian rhythm.
(§2) The promoters that facilitate transcription of the indicated gene products that were tested using the protocols described herein are listed in the first row of the table. The nuclear hormone receptors and, where applicable, ligands that were assayed for their transcriptional effects on the promoters are listed in the first column of the table. The data represent the luciferase activity of each sample normalized to both the lacZ activity of that sample and to a control, e.g., no NHR or ligand, as customary in the art. As described previously, these normalizations allow the transcriptional activity of each reporter cell to be compared to other samples.
(§3) Tables 7-40 show the transcriptional effects of the hormone receptors, and, where applicable, ligands (orphan receptors are screened without ligand), on each individual promoter. […] The control data of each table are shown in their last rows.

mAgrp promoter = test: NHR-promoter luciferase screen, mAgrp promoter; type: cell-based, mouse; conditions: for Results of assays of transcription factor (+/- ligand) with mAgrp: Table 6d, luciferase activity relative to control (control = 1.00); for Luc. act., normalized to lacZ / Normalized Luc. act., normalized to control: mAgrp promoter, HR component with or without ligand; for Normalized Luc. act., normalized to control: relative to control
Description: as §1, §2, §3

hIFNg promoter = test: NHR-promoter luciferase screen, hIFNg promoter; type: cell-based, human; conditions: for Luc. act., normalized to lacZ / Normalized Luc. act., normalized to control: IFNg promoter, HR component without or with ligand; for hIFNg promoter reporter activity: transcription factor +/- ligand, control = 1.00
Description: as §1, §2, §3

Row | Molecule | Luc. act., normalized to lacZ (mUCP2 promoter) | Normalized Luc. act., normalized to control (mUCP2 promoter) | luciferase activity normalized to lacZ activity and to a control, mUCP2 (mUCP2 promoter) | Results of assays of transcription factor (+/- ligand) with mAgrp (mAgrp promoter) | Luc. act., normalized to lacZ (mAgrp promoter) | Normalized Luc. act., normalized to control (mAgrp promoter) | Luc. act., normalized to lacZ (hIFNg promoter) | Normalized Luc. act., normalized to control (hIFNg promoter) | hIFNg promoter reporter activity (hIFNg promoter)
1 | B1 | 172.7 | 1.6 | 1.57 | 1.32 | 52.4 | 1.3 | 19.72 | 1.2 | 1.24
2 | B2 | 176.2 | 1.6 | 1.60 | 1.37 | 54.3 | 1.4 | 22.2 | 1.4 | 1.40
3 | B3 | 111.6 | 1.0 | 1.02 | 1.14 | 45.1 | 1.1 | 17.12 | 1.1 | 1.08
4 | B4 | 87.7 | 0.8 | 0.80 | 1.30 | 51.6 | 1.3 | 20.0 | 1.3 | 1.26
5 | B5 | 151.6 | 1.4 | 1.38 | 1.06 | 42.2 | 1.1 | 19.0 | 1.2 | 1.19
6 | B6 | 119.1 | 1.1 | 1.08 | 1.51 | 60.0 | 1.5 | 23.93 | 1.5 | 1.50
7 | B7 | 144.4 | 1.3 | 1.31 | 1.30 | 51.5 | 1.3 | 15.2 | 1.0 | 0.96

Source: patent US20110263454A1, “Methods of Identifying Functional Characteristics of Promoters, Transcription Modifying Proteins and Transcription Modulating Agents” (Salk Institute for Biological Studies, priority 2008, published 2011)
